Results: patent publication US20250333749A1, “INDUCIBLE PROMOTER, VECTOR AND HOST CELL BASED THEREON” (JOINT STOCK COMPANY «BIOCAD», priority 2021, published 2025)
Values belong to the molecule of their own block, whether it stands above or below them.

Tests used:
[1] = test system: HEK293 Nf-kB reporter line; assay: Activation of HEK293 Nf-kB reporter line by PMA (luciferase); type: cell-based; settings: 24 hours incubation; FIG. 5
Description: (§1) We used a PMA activator to screen clonal reporter lines. This agent directly effects protein kinase C, thus triggering signaling cascades that activate the reporter gene expression (https://doi.org/10.1007/s11373-005-1210-5; doi: 10.1093/carcin/bgm261). To determine the optimal dose of PMA, we conducted experiments involving activation of the HEK293 Nf-kB reporter line. Cells were seeded in a white 96-well culture plate for adhesion cultures at 3*10^5 cells per well, and PMA activator was added at concentrations indicated in the graph up to 150 μl in a well. All solutions were prepared in DMEM growth medium supplemented with 10% fetal bovine serum, 2 mM L-glutamine and 10 μg/ml gentamicin. The plate was incubated for 24 hours at 37° C. in a humid atmosphere in the presence of 5% CO2. Following incubation, the wells were drained, and 100 μl of luciferin substrate with a lysing component was added, the plate was left in the dark for 10 minutes, after which the luminescence level was detected using a plate reader using the SparkControl V2.1 software package (Tecan, Austria).

[2] = biological target: AXL receptor expressed on HEK293 reporter cells (HEK293_STAT3-STAT5-AP1_FLuc_AXL; HEK293_AXL_STAT3-STAT5-AP1_FLuc) (UniProt P30530); assay: cell-based or functional assay
Sequence of UniProt P30530 (P30530 26-894 limits assumed): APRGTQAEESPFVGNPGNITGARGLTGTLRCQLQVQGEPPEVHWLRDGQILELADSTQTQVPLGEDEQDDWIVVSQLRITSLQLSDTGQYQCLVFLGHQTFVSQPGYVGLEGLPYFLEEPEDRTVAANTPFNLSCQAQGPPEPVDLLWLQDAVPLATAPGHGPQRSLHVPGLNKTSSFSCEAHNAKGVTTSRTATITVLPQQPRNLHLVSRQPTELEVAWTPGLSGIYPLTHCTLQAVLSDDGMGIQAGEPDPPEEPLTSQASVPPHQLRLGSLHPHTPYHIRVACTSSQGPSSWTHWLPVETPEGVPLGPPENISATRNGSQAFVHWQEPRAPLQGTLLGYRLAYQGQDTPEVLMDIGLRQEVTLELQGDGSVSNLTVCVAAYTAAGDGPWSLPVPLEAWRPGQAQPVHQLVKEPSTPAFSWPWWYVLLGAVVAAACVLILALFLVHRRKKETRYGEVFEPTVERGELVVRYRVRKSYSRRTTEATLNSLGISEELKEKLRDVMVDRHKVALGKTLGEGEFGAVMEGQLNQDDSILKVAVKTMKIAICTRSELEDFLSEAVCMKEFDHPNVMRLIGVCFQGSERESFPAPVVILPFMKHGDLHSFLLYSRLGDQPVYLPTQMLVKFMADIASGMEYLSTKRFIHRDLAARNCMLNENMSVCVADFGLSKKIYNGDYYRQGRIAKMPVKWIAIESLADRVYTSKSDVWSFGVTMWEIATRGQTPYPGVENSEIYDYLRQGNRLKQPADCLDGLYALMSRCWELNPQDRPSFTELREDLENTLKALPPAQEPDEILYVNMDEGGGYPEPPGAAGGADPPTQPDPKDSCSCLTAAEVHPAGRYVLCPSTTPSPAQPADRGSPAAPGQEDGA

[3] = test system: HEK293_STAT3-STAT5-AP1_FLuc_AXL cells (AXL receptor); assay: GAS6-dependent AXL-mediated activation of reporter cell line HEK293_STAT3-STAT5-AP1_FLuc_AXL; type: cell-based; settings: GAS6 2 μg/ml
Description: (§2) To generate the reporter cell line HEK293_STAT3-STAT5-AP1_FLuc_AXL, we used three clones of the universal reporter cell line HEK293_STAT3-STAT5-AP1_FLuc: cl. D1, cl. B3 and cl. C4 #2; on the basis of them, we produced, respectively, 3 pools of cells with an embedded constitutionally expressed AXL receptor gene. AXL-mediated activation of these pools was tested. The test was performed in a 96-well culture plate designed for luminescence assays. […] The final volume of the cell suspension in a well was 100 μl, all components of the suspension were prepared in DMEM medium free of fetal bovine serum. After adding all the components, the plate was incubated for 16 hours at 37° C., 5% CO2, and then, using a luminescence assay kit, we measured the luminescence intensity in the wells. The measurement was carried out using a plate reader. The activation level was calculated as the ratio of luminescence level for a given pool in the presence of GAS6 to luminescence level in the absence of GAS6.
B3 and cl. […] D1. […]
The test was performed similarly to the procedure described in Example 7, we used the cells of the reporter line HEK293_STAT3-STAT5-AP1_FLuc_AXL (cl.13) and GAS6 at a concentration of 2 μg/ml (FIG. 11) for activation; following adding all the components, the plate was incubated for the time shown in the graph, the luminescence intensity in the wells was then determined. […]

[4] = test system: HEK293_AXL_STAT3-STAT5-AP1 cells (AXL overexpresser); assay: GAS6 activation of reporter cell line HEK293_AXL_STAT3-STAT5-AP1 as a function of cell count; type: cell-based; settings: GAS6 2 μg/ml; 96-well plate; FIG. 17
Description: as §2
To create the reporter cell line HEK293_AXL_STAT3-STAT5-AP1_FLuc, we used the cell line HEK293_AXL, an AXL overexpresser, on the basis of which we produced a pool of cells comprising a gene encoding firefly luciferase under the control of STAT3-STAT5-AP1 promoter. […] The test was performed in a similar fashion to the procedure described in Example 7, at a concentration of GAS6 of 2 μg/ml. […]

[5] = test system: HEK293-STAT3-STAT5-AP1_FLuc_IL10R cells (IL-10 receptor); assay: IL10 activity determination test (luciferase expression activation); type: cell-based, human; settings: various concentrations of IL10; FIG. 8
Description: as §1
To evaluate the reporter line in a specific cell test, we expressed the IL-10 receptor onto the surface of the reporter cells. To this end, the HEK293_STAT3-STAT5-AP1_FLuc reporter cell line produced in Example 4 was transfected with plasmid vectors encoding IL-10 receptor subunits produced in Example 2. […]

Molecule: CCCCCCCCCCCCCC(=O)O[C@@H]1[C@@H](C)[C@@]2(O)[C@@H](C=C(CO)C[C@]3(O)C(=O)C(C)=C[C@@H]23)[C@@H]2C(C)(C)[C@]12OC(C)=O [PMA]
optimal concentration of the PMA activator [1]: 33 nM

level of GAS6-dependent activation, well A1 (fold over non-activated cells) [2]: 1.35
level of GAS6-dependent activation, well A2 (fold over non-activated cells) [2]: 1.59
level of GAS6-dependent activation, well A3 (fold over non-activated cells) [2]: 8.66
level of GAS6-dependent activation, well A4 (fold over non-activated cells) [2]: 1.09
level of GAS6-dependent activation, well A6 (fold over non-activated cells) [2]: 1.49
level of GAS6-dependent activation, well A7 (fold over non-activated cells) [2]: 2.16
level of GAS6-dependent activation, well A8 (fold over non-activated cells) [2]: 0.85
level of GAS6-dependent activation, well A9 (fold over non-activated cells) [2]: 0.96
level of GAS6-dependent activation, well A10 (fold over non-activated cells) [2]: 6.93
level of GAS6-dependent activation, well A11 (fold over non-activated cells) [2]: 1.54
level of GAS6-dependent activation, well B1 (fold over non-activated cells) [2]: 1.09
level of GAS6-dependent activation, well B2 (fold over non-activated cells) [2]: 2.12
level of GAS6-dependent activation, well B3 (fold over non-activated cells) [2]: 1.33
level of GAS6-dependent activation, well B4 (fold over non-activated cells) [2]: 1.28
level of GAS6-dependent activation, well B5 (fold over non-activated cells) [2]: 1.5
level of GAS6-dependent activation, well B6 (fold over non-activated cells) [2]: 0.99
level of GAS6-dependent activation, well B7 (fold over non-activated cells) [2]: 1.12
level of GAS6-dependent activation, well B8 (fold over non-activated cells) [2]: 2.1
level of GAS6-dependent activation, well B9 (fold over non-activated cells) [2]: 1.26
level of GAS6-dependent activation, well B10 (fold over non-activated cells) [2]: 1.58
level of GAS6-dependent activation, well B11 (fold over non-activated cells) [2]: 2.56
level of GAS6-dependent activation, well B12 (fold over non-activated cells) [2]: 1.4
level of GAS6-dependent activation, well C1 (fold over non-activated cells) [2]: 0.92
level of GAS6-dependent activation, well C2 (fold over non-activated cells) [2]: 1.32
level of GAS6-dependent activation, well C3 (fold over non-activated cells) [2]: 0.95
level of GAS6-dependent activation, well C4 (fold over non-activated cells) [2]: 1.2
level of GAS6-dependent activation, well C5 (fold over non-activated cells) [2]: 1.2
level of GAS6-dependent activation, well C6 (fold over non-activated cells) [2]: 4.37
level of GAS6-dependent activation, well C8 (fold over non-activated cells) [2]: 1.04
level of GAS6-dependent activation, well C9 (fold over non-activated cells) [2]: 1.77
level of GAS6-dependent activation, well C10 (fold over non-activated cells) [2]: 3.15
level of GAS6-dependent activation, well C11 (fold over non-activated cells) [2]: 5.55
level of GAS6-dependent activation, well C12 (fold over non-activated cells) [2]: 1.47
level of GAS6-dependent activation, well D1 (fold over non-activated cells) [2]: 1.25
level of GAS6-dependent activation, well D2 (fold over non-activated cells) [2]: 1.29
level of GAS6-dependent activation, well D3 (fold over non-activated cells) [2]: 2.38
level of GAS6-dependent activation, well D4 (fold over non-activated cells) [2]: 2.41
level of GAS6-dependent activation, well D5 (fold over non-activated cells) [2]: 2.63
level of GAS6-dependent activation, well D6 (fold over non-activated cells) [2]: 1.32
level of GAS6-dependent activation, well D7 (fold over non-activated cells) [2]: 1.16
level of GAS6-dependent activation, well D8 (fold over non-activated cells) [2]: 2.12
level of GAS6-dependent activation, well D9 (fold over non-activated cells) [2]: 1.55
level of GAS6-dependent activation, well D10 (fold over non-activated cells) [2]: 1.68
level of GAS6-dependent activation, well D11 (fold over non-activated cells) [2]: 3.74
level of GAS6-dependent activation, well D12 (fold over non-activated cells) [2]: 1.23
level of GAS6-dependent activation, well E1 (fold over non-activated cells) [2]: 1.83
level of GAS6-dependent activation, well E2 (fold over non-activated cells) [2]: 0.93
level of GAS6-dependent activation, well E3 (fold over non-activated cells) [2]: 3.03
level of GAS6-dependent activation, well E4 (fold over non-activated cells) [2]: 1.18
level of GAS6-dependent activation, well E5 (fold over non-activated cells) [2]: 1.73
level of GAS6-dependent activation, well E6 (fold over non-activated cells) [2]: 1.51
level of GAS6-dependent activation, well E7 (fold over non-activated cells) [2]: 2.14
level of GAS6-dependent activation, well E8 (fold over non-activated cells) [2]: 1.13
level of GAS6-dependent activation, well E9 (fold over non-activated cells) [2]: 1.74
level of GAS6-dependent activation, well E10 (fold over non-activated cells) [2]: 1.55
level of GAS6-dependent activation, well E11 (fold over non-activated cells) [2]: 0.86
level of GAS6-dependent activation, well E12 (fold over non-activated cells) [2]: 1.03
level of GAS6-dependent activation, well F1 (fold over non-activated cells) [2]: 1.55
level of GAS6-dependent activation, well F2 (fold over non-activated cells) [2]: 1.34
level of GAS6-dependent activation, well F3 (fold over non-activated cells) [2]: 7.48
level of GAS6-dependent activation, well F4 (fold over non-activated cells) [2]: 1.79
level of GAS6-dependent activation, well F5 (fold over non-activated cells) [2]: 1.69
level of GAS6-dependent activation, well F7 (fold over non-activated cells) [2]: 2.89
level of GAS6-dependent activation, well F8 (fold over non-activated cells) [2]: 1.58
level of GAS6-dependent activation, well F9 (fold over non-activated cells) [2]: 1.53
level of GAS6-dependent activation, well F10 (fold over non-activated cells) [2]: 1.35
level of GAS6-dependent activation, well F11 (fold over non-activated cells) [2]: 1.29
level of GAS6-dependent activation, well F12 (fold over non-activated cells) [2]: 5.65
level of GAS6-dependent activation, well G1 (fold over non-activated cells) [2]: 2.05
level of GAS6-dependent activation, well G2 (fold over non-activated cells) [2]: 3.08
level of GAS6-dependent activation, well G3 (fold over non-activated cells) [2]: 2.51
level of GAS6-dependent activation, well G4 (fold over non-activated cells) [2]: 1.05
level of GAS6-dependent activation, well G5 (fold over non-activated cells) [2]: 1.55
level of GAS6-dependent activation, well G7 (fold over non-activated cells) [2]: 2.12
level of GAS6-dependent activation, well G8 (fold over non-activated cells) [2]: 2.51
level of GAS6-dependent activation, well G9 (fold over non-activated cells) [2]: 1.78
level of GAS6-dependent activation, well G10 (fold over non-activated cells) [2]: 2.5
level of GAS6-dependent activation, well G11 (fold over non-activated cells) [2]: 2.26
level of GAS6-dependent activation, well G12 (fold over non-activated cells) [2]: 3.43
level of GAS6-dependent activation, well H11 (the pool) (fold over non-activated cells) [2]: 3.61
level of GAS6-dependent activation, well H12 (fold over non-activated cells) [2]: 1.94
Molecule: AXL ligand GAS6 (from UniProt Q14393 49-678)

B1: GAS6: the AXL ligand GAS6; activator of AXL-dependent cell signaling (protein)
chain: AFQVFEEAKQGHLERECVEELCSREEAREVFENDPETDYFYPRYLDCINKYGSPYTKNSGFATCVQNLPDQCTPNPCDRKGTQACQDLMGNFFCLCKAGWGGRLCDKDVNECSQENGGCLQICHNKPGSFHCSCHSGFELSSDGRTCQDIDECADSEACGEARCKNLPGSYSCLCDEGFAYSSQEKACRDVDECLQGRCEQVCVNSPGSYTCHCDGRGGLKLSQDMDTCEDILPCVPFSVAKSVKSLYLGRMFSGTPVIRLRFKRLQPTRLVAEFDFRTFDPEGILLFAGGHQDSTWIVLALRAGRLELQLRYNGVGRVTSSGPVINHGMWQTISVEELARNLVIKVNRDAVMKIAVAGDLFQPERGLYHLNLTVGGIPFHEKDLVQPINPRLDGCMRSWNWLNGEDTTIQETVKVNTRMQCFSVTERGSFYPGSGFAFYSLDYMRTPLDVGTESTWEVEVVAHIRPAADTGVLFALWAPDLRAVPLSVALVDYHSTKKLKKQLVVLAVEHTALALMEIKVCDGQEHVVTVSLRDGEATLEVDGTRGQSEVSAAQLQERLAVLERHLRSPVLTFAGGLPDVPVTSAPVTAFYRGCMTLEVNRRLLDLDEAAYKHSDITAHSCPPVEPAAA
Level of GAS6-dependent activation (activation relative to non-activated cells) ([3]; well H11 = initial pool (based on cl. D1)): 3.61
incubation time with the highest level of activation ([3]; cl.13, FIG. 11): 24 h
cell count per well with the highest level of activation [4]: 25,000-50,000 cells

B2: IL10: Recombinant human IL10 used as an activator (protein)
chain: SPGQGTQSENSCTHFPGNLPNMLRDLRDAFSRVKTFFQMKDQLDNLLLKESLLEDFKGYLGCQALSEMIQFYLEEVMPQAENQDPDIKAHVNSLGENLKTLRLRLRRCHRFLPCENKSKAVEQVKNAFNKLQEKGIYKAMSEFDIFINYIEAYMTMKIRN
response of the reporter cell line to IL10 activator [5]: dose-dependent response
